The target in this test is T1, IFT54^CH (IFT54 residues 1-137) (human, UniProt Q8TDR0 1-137).
T1 construct: IFT54 (IFT-B subunit), human, CH domain, residues 1-137; also called IFT54 CH domain; source: baculovirus system, purified (IgG Sepharose, released by TEV protease); not shown: ZZ, N-terminal, cleaved
T1 sequence (looked up): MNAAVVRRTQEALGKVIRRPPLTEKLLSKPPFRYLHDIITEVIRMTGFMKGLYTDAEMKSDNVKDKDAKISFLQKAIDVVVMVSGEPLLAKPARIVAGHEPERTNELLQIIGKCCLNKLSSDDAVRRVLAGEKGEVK
Put plainly: pull-down; ZZ-SNAP-GST-WDR60^355-449 immobilized on IgG Sepharose 6; purified IFT54^CH at 4.6 µM flowed over in wash buffer (30 mM HEPES pH 7.4, 150 mM KCl, 1 mM EGTA, 1 mM DTT, 10% glycerol); TEV elution, SDS-PAGE, Sypro Red. The settings on record: both partners purified.

The record followed here is publication PMC10987677 (The EMBO Journal, 2024).

B1: ZZ-SNAP-GST-WDR60^355-449 (domain or fragment, human, UniProt Q8WVS4 355-449, looked up)
chain: IEKEETDLENARADAYTASCEDDFEDYEDDFEVCDGDDDESSNEPESREKLEELPLAQKKEIQEIQRAINAENERIGELSLKLFQKRGRTEFEKE
notes: WDR60/DYNC2I1, human, residues 355-449 of the N-terminal extension; released by TEV protease afterwards for SDS-PAGE; source: baculovirus system, immobilized on IgG Sepharose 6 resin and washed; not shown: ZZ, N-terminal, kept; SNAP, N-terminal, kept; GST, N-terminal, kept
With B1, the binding result is reported as “binds”.
